Experimental data taken from paper PMC10319874 (Scientific Reports, 2023).

B1: recombinant RgpB propeptide (rRgpB-PP) (domain or fragment)
chain: QPAERGRNPQVRLLSAEQSMSKVQFRMDNLQFTGVQTSKGVAQVPTFTEGVNISEKGTPILPILSRSLAVSETRAMKVEVVSSKFIEKKDVLIAPSKGVISRAENPDQIPYVYGQSYNEDKFFPGEIATLSDPFILRDVRGQVVNFAPLQYNPVTKTLRIYTEIVVAVSETAEAGQNTISLVKNSTFTGFEDIYKSVFMNYEATR
B2: recombinant RgpA propeptide (rRgpA-PP) (domain or fragment)
chain: QQTELGRNPNVRLLESTQQSVTKVQFRMDNLKFTEVQTPKGMAQVPTYTEGVNLSEKGMPTLPILSRSLAVSDTREMKVEVVSSKFIEKKNVLIAPSKGMIMRNEDPKKIPYVYGKSYSQNKFFPGEIATLDDPFILRDVRGQVVNFAPLQYNPVTKTLRIYTEITVAVSETSEQGKNILNKKGTFAGFEDTYKRMFMNYEPGR

What was measured:
RgpB = RgpB (Porphyromonas gingivalis, UniProt P95493 230-736); experiment: […], Tris buffer (50 mM Tris, 150 mM NaCl, 5 mM CaCl2, pH 8.0) […]; conditions: both partners purified
[1] = target: histidine-tagged monomeric RgpA (rRgpAH) (Porphyromonas gingivalis W50, UniProt P28784 228-658); experiment: as above; conditions: both partners purified
Chain of histidine-tagged monomeric RgpA (rRgpAH) (P28784 228-658, tags or fused parts left off): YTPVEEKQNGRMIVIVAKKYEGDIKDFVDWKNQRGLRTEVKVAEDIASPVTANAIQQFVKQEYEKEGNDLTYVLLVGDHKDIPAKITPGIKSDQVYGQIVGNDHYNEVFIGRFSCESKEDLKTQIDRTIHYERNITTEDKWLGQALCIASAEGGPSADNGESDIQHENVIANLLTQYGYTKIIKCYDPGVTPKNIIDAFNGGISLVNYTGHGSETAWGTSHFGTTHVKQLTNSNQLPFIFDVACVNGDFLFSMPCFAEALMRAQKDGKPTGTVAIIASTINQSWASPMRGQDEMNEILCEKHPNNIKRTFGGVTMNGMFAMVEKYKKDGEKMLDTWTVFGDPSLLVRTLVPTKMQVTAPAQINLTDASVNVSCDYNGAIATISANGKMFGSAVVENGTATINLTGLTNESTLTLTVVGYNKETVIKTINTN

Chain of RgpB (P95493 230-736): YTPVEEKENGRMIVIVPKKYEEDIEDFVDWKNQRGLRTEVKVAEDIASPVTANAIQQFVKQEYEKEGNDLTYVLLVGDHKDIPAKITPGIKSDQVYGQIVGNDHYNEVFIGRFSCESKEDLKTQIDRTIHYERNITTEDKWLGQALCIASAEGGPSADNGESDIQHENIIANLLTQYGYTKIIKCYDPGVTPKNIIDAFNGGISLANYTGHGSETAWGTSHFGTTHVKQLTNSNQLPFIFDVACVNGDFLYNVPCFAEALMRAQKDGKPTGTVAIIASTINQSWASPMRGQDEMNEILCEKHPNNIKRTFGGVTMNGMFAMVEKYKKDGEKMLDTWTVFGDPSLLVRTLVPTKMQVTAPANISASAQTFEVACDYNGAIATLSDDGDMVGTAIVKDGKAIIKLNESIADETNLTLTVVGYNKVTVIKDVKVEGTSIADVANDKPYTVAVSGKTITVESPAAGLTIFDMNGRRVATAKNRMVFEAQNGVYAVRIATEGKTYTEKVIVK

Binder	Ki (RgpB) [nM]	Ki [1] [nM]
B1	29	22
B2	15	13
